Laboratory results taken from patent publication US20220387578A1 (VANDERBILT UNIVERSITY, published 2022).
Where a chain is given by its changes, count along the chain named. In names and notes the source's numbering stands.

B1: rFluA-20 heavy chain mutant Y34A (antibody, V domains shown)
VH: QVQLQESGPGLVKPSETLSLTCSVSGVSVTSDIAYWTWIRQPPGKGLEWIGYIFYNGDTNYNPSLKSRVTMSIDTSKNEFSLRLTSVTAADTAVYFCARGTEDLGYCSSGSCPNHWGQGTLVTVSS
VL: DIQMTQSPSSLSASIGDRVTITCRPSQNIRSFLNWFQHKPGKAPKLLIYAASNLQSGVPSRFSGSGSGTEFTLTIRSLQPEDFATYYCQQSYNTPPTFGQGTKVEIK
B2: rFluA-20 heavy chain mutant T96A (antibody, V domains shown)
VH: B1 VH with A34Y, T101A
VL: B1 VL
B3: rFluA-20 heavy chain mutant E97A (antibody, V domains shown)
VH: B1 VH with A34Y, E102A
VL: B1 VL
B4: rFluA-20 heavy chain mutant Y100aA (antibody, V domains shown)
VH: B1 VH with A34Y, Y106A
VL: B1 VL
B5: rFluA-20 light chain mutant N53A (antibody, V domains shown)
VH: B1 VH with A34Y
VL: B1 VL with N53A

What follows are binders tested against H3 HA A/Hong Kong/1/1968 (H3N2), recombinant soluble trimer (influenza A virus, UniProt Q91MA7 17-530).

Binder	EC50
B1	0.07 µg/mL
B2	0.1 µg/mL
B3	0.07 µg/mL
B4	0.07 µg/mL
B5	0.06 µg/mL
